Source: PMC12501226

Target: SARS-CoV-2 spike HexaPro protein (SARS-CoV-2)
Assay: SPR

Substance	Kd	koff	kon
T5A (collagen XVIII trimerization domain, 5-residue G/S linker, ACE2 18-615) (from UniProt P39060;Q9BYF1)	0.69 nM		
ACE2 monomer (human extracellular ACE2 domain, residues 18-615, cut from ACE2-TEV-Fc) (from UniProt Q9BYF1 18-615) (domain or fragment)	49 nM	0.0073 s⁻¹	150000 M⁻¹ s⁻¹
T3A (collagen XVIII trimerization domain, 3-residue G/S linker, ACE2 18-615) (from UniProt P39060;Q9BYF1)	0.37 nM		
T1A (collagen XVIII trimerization domain, 1-residue G/S linker, ACE2 18-615) (from UniProt P39060;Q9BYF1)	0.1 nM		
